From patent US20140087995A1 (published 2014)
Numbered stars: 1 amine (or outer) side, 2 acyl side, 3 side chain; on linkers, the order of the positions; unused ones are H or OH. Bridge positions count the residues as written; N and C are the ends. Side chains are listed from the residue outwards. Ends that are not written are not given here. * marks the point of attachment. C20 diacid = O=C(O)CCCCCCCCCCCCCCCCCCC(=O)*; γGlu = O=C(O)[C@H](CCC(=O)[*:2])N[*:1]

T1: human calcitonin receptor (human, UniProt P30988 25-474)
T1 sequence (looked up): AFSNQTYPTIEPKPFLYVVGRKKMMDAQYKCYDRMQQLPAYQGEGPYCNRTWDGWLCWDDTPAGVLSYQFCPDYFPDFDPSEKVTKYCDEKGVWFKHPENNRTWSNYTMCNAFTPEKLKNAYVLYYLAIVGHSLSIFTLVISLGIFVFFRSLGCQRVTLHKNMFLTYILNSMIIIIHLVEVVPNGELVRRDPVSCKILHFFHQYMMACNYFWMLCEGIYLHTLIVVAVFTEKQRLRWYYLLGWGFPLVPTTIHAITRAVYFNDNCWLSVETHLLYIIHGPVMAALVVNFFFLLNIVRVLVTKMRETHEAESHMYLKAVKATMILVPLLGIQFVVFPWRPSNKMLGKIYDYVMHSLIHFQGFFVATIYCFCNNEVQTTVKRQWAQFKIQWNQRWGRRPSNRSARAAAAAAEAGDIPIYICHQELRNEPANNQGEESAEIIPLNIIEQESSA

B1: N^α1-[(4S)-4-carboxy-4-(19-carboxynonadecanoylamino)butanoyl]-[Asp14,Arg17,Pro21,Pro27,Pro37]-h-amylin (peptide)
peptide: {C20 diacid-γGlu}-KCNTATCATQRLADFLRHSSPNFGAIPSSTNVGSNTP-NH2
modifications: disulfide 2-7
SMILES: CC[C@H](C)[C@H](NC(=O)[C@H](C)NC(=O)CNC(=O)[C@H](Cc1ccccc1)NC(=O)[C@H](CC(N)=O)NC(=O)[C@@H]1CCCN1C(=O)[C@H](CO)NC(=O)[C@H](CO)NC(=O)[C@H](Cc1c[nH]cn1)NC(=O)[C@H](CCCNC(=N)N)NC(=O)[C@H](CC(C)C)NC(=O)[C@H](Cc1ccccc1)NC(=O)[C@H](CC(=O)O)NC(=O)[C@H](C)NC(=O)[C@H](CC(C)C)NC(=O)[C@H](CCCNC(=N)N)NC(=O)[C@H](CCC(N)=O)NC(=O)[C@@H](NC(=O)[C@H](C)NC(=O)[C@@H]1CSSC[C@H](NC(=O)[C@H](CCCCN)NC(=O)CC[C@H](NC(=O)CCCCCCCCCCCCCCCCCCC(=O)O)C(=O)O)C(=O)N[C@@H](CC(N)=O)C(=O)N[C@@H]([C@@H](C)O)C(=O)N[C@@H](C)C(=O)N[C@@H]([C@@H](C)O)C(=O)N1)[C@@H](C)O)C(=O)N1CCC[C@H]1C(=O)N[C@@H](CO)C(=O)N[C@@H](CO)C(=O)N[C@H](C(=O)N[C@@H](CC(N)=O)C(=O)N[C@H](C(=O)NCC(=O)N[C@@H](CO)C(=O)N[C@@H](CC(N)=O)C(=O)N[C@H](C(=O)N1CCC[C@H]1C(N)=O)[C@@H](C)O)C(C)C)[C@@H](C)O
notes: Synthetic acylated analogue of human amylin; also called compound 10
B2: N^α1-[(4S)-4-carboxy-4-(19-carboxynonadecanoylamino)butanoyl]-[Glu14,Arg17,Pro21,Pro26,Pro37]-h-amylin (peptide)
peptide: {C20 diacid-γGlu}-KCNTATCATQRLAEFLRHSSPNFGAPLSSTNVGSNTP-NH2
modifications: disulfide 2-7
SMILES: CC(C)C[C@H](NC(=O)[C@H](CCCNC(=N)N)NC(=O)[C@H](CCC(N)=O)NC(=O)[C@@H](NC(=O)[C@H](C)NC(=O)[C@@H]1CSSC[C@H](NC(=O)[C@H](CCCCN)NC(=O)CC[C@H](NC(=O)CCCCCCCCCCCCCCCCCCC(=O)O)C(=O)O)C(=O)N[C@@H](CC(N)=O)C(=O)N[C@@H]([C@@H](C)O)C(=O)N[C@@H](C)C(=O)N[C@@H]([C@@H](C)O)C(=O)N1)[C@@H](C)O)C(=O)N[C@@H](C)C(=O)N[C@@H](CCC(=O)O)C(=O)N[C@@H](Cc1ccccc1)C(=O)N[C@@H](CC(C)C)C(=O)N[C@@H](CCCNC(=N)N)C(=O)N[C@@H](Cc1c[nH]cn1)C(=O)N[C@@H](CO)C(=O)N[C@@H](CO)C(=O)N1CCC[C@H]1C(=O)N[C@@H](CC(N)=O)C(=O)N[C@@H](Cc1ccccc1)C(=O)NCC(=O)N[C@@H](C)C(=O)N1CCC[C@H]1C(=O)N[C@@H](CC(C)C)C(=O)N[C@@H](CO)C(=O)N[C@@H](CO)C(=O)N[C@H](C(=O)N[C@@H](CC(N)=O)C(=O)N[C@H](C(=O)NCC(=O)N[C@@H](CO)C(=O)N[C@@H](CC(N)=O)C(=O)N[C@H](C(=O)N1CCC[C@H]1C(N)=O)[C@@H](C)O)C(C)C)[C@@H](C)O
notes: Synthetic acylated analogue of human amylin; also called compound 5
B3: N^α1-[(4S)-4-carboxy-4-(19-carboxynonadecanoylamino)butanoyl]-[Glu14,Arg17,Pro21,Pro27,Asp35,Pro37]-h-amylin (peptide)
peptide: {C20 diacid-γGlu}-KCNTATCATQRLAEFLRHSSPNFGAIPSSTNVGSDTP-NH2
modifications: disulfide 2-7
SMILES: CC[C@H](C)[C@H](NC(=O)[C@H](C)NC(=O)CNC(=O)[C@H](Cc1ccccc1)NC(=O)[C@H](CC(N)=O)NC(=O)[C@@H]1CCCN1C(=O)[C@H](CO)NC(=O)[C@H](CO)NC(=O)[C@H](Cc1c[nH]cn1)NC(=O)[C@H](CCCNC(=N)N)NC(=O)[C@H](CC(C)C)NC(=O)[C@H](Cc1ccccc1)NC(=O)[C@H](CCC(=O)O)NC(=O)[C@H](C)NC(=O)[C@H](CC(C)C)NC(=O)[C@H](CCCNC(=N)N)NC(=O)[C@H](CCC(N)=O)NC(=O)[C@@H](NC(=O)[C@H](C)NC(=O)[C@@H]1CSSC[C@H](NC(=O)[C@H](CCCCN)NC(=O)CC[C@H](NC(=O)CCCCCCCCCCCCCCCCCCC(=O)O)C(=O)O)C(=O)N[C@@H](CC(N)=O)C(=O)N[C@@H]([C@@H](C)O)C(=O)N[C@@H](C)C(=O)N[C@@H]([C@@H](C)O)C(=O)N1)[C@@H](C)O)C(=O)N1CCC[C@H]1C(=O)N[C@@H](CO)C(=O)N[C@@H](CO)C(=O)N[C@H](C(=O)N[C@@H](CC(N)=O)C(=O)N[C@H](C(=O)NCC(=O)N[C@@H](CO)C(=O)N[C@@H](CC(=O)O)C(=O)N[C@H](C(=O)N1CCC[C@H]1C(N)=O)[C@@H](C)O)C(C)C)[C@@H](C)O
notes: Synthetic acylated analogue of human amylin; also called compound 11
B4: N^α1-[(4S)-4-carboxy-4-(19-carboxynonadecanoylamino)butanoyl]-[Glu14,Arg17,Pro21,Pro27,Pro37]-h-amylin (peptide)
peptide: {C20 diacid-γGlu}-KCNTATCATQRLAEFLRHSSPNFGAIPSSTNVGSNTP-NH2
modifications: disulfide 2-7
SMILES: CC[C@H](C)[C@H](NC(=O)[C@H](C)NC(=O)CNC(=O)[C@H](Cc1ccccc1)NC(=O)[C@H](CC(N)=O)NC(=O)[C@@H]1CCCN1C(=O)[C@H](CO)NC(=O)[C@H](CO)NC(=O)[C@H](Cc1c[nH]cn1)NC(=O)[C@H](CCCNC(=N)N)NC(=O)[C@H](CC(C)C)NC(=O)[C@H](Cc1ccccc1)NC(=O)[C@H](CCC(=O)O)NC(=O)[C@H](C)NC(=O)[C@H](CC(C)C)NC(=O)[C@H](CCCNC(=N)N)NC(=O)[C@H](CCC(N)=O)NC(=O)[C@@H](NC(=O)[C@H](C)NC(=O)[C@@H]1CSSC[C@H](NC(=O)[C@H](CCCCN)NC(=O)CC[C@H](NC(=O)CCCCCCCCCCCCCCCCCCC(=O)O)C(=O)O)C(=O)N[C@@H](CC(N)=O)C(=O)N[C@@H]([C@@H](C)O)C(=O)N[C@@H](C)C(=O)N[C@@H]([C@@H](C)O)C(=O)N1)[C@@H](C)O)C(=O)N1CCC[C@H]1C(=O)N[C@@H](CO)C(=O)N[C@@H](CO)C(=O)N[C@H](C(=O)N[C@@H](CC(N)=O)C(=O)N[C@H](C(=O)NCC(=O)N[C@@H](CO)C(=O)N[C@@H](CC(N)=O)C(=O)N[C@H](C(=O)N1CCC[C@H]1C(N)=O)[C@@H](C)O)C(C)C)[C@@H](C)O
notes: Synthetic acylated analogue of human amylin; also called compound 8
B5: N^α1-[(4S)-4-carboxy-4-[[(4S)-4-carboxy-4-(19-carboxynonadecanoylamino)butanoyl]amino]butanoyl]-[Glu14,Arg17,Pro21,Pro27,Pro37]-h-amylin (peptide)
peptide: {C20 diacid-γGlu-γGlu}-KCNTATCATQRLAEFLRHSSPNFGAIPSSTNVGSNTP-NH2
modifications: disulfide 2-7
SMILES: CC[C@H](C)[C@H](NC(=O)[C@H](C)NC(=O)CNC(=O)[C@H](Cc1ccccc1)NC(=O)[C@H](CC(N)=O)NC(=O)[C@@H]1CCCN1C(=O)[C@H](CO)NC(=O)[C@H](CO)NC(=O)[C@H](Cc1c[nH]cn1)NC(=O)[C@H](CCCNC(=N)N)NC(=O)[C@H](CC(C)C)NC(=O)[C@H](Cc1ccccc1)NC(=O)[C@H](CCC(=O)O)NC(=O)[C@H](C)NC(=O)[C@H](CC(C)C)NC(=O)[C@H](CCCNC(=N)N)NC(=O)[C@H](CCC(N)=O)NC(=O)[C@@H](NC(=O)[C@H](C)NC(=O)[C@@H]1CSSC[C@H](NC(=O)[C@H](CCCCN)NC(=O)CC[C@H](NC(=O)CC[C@H](NC(=O)CCCCCCCCCCCCCCCCCCC(=O)O)C(=O)O)C(=O)O)C(=O)N[C@@H](CC(N)=O)C(=O)N[C@@H]([C@@H](C)O)C(=O)N[C@@H](C)C(=O)N[C@@H]([C@@H](C)O)C(=O)N1)[C@@H](C)O)C(=O)N1CCC[C@H]1C(=O)N[C@@H](CO)C(=O)N[C@@H](CO)C(=O)N[C@H](C(=O)N[C@@H](CC(N)=O)C(=O)N[C@H](C(=O)NCC(=O)N[C@@H](CO)C(=O)N[C@@H](CC(N)=O)C(=O)N[C@H](C(=O)N1CCC[C@H]1C(N)=O)[C@@H](C)O)C(C)C)[C@@H](C)O
notes: Synthetic acylated analogue of human amylin; also called compound 14
B6: N^ε1-[(4S)-4-carboxy-4-(19-carboxynonadecanoylamino)butanoyl]-[Glu14,Arg17,Pro21,Pro27,Pro34,Pro37]-h-amylin (peptide)
peptide: K([γGlu-C20 diacid])CNTATCATQRLAEFLRHSSPNFGAIPSSTNVGPNTP-NH2
modifications: disulfide 2-7; N-terminus assumed
SMILES: CC[C@H](C)[C@H](NC(=O)[C@H](C)NC(=O)CNC(=O)[C@H](Cc1ccccc1)NC(=O)[C@H](CC(N)=O)NC(=O)[C@@H]1CCCN1C(=O)[C@H](CO)NC(=O)[C@H](CO)NC(=O)[C@H](Cc1c[nH]cn1)NC(=O)[C@H](CCCNC(=N)N)NC(=O)[C@H](CC(C)C)NC(=O)[C@H](Cc1ccccc1)NC(=O)[C@H](CCC(=O)O)NC(=O)[C@H](C)NC(=O)[C@H](CC(C)C)NC(=O)[C@H](CCCNC(=N)N)NC(=O)[C@H](CCC(N)=O)NC(=O)[C@@H](NC(=O)[C@H](C)NC(=O)[C@@H]1CSSC[C@H](NC(=O)[C@@H](N)CCCCNC(=O)CC[C@H](NC(=O)CCCCCCCCCCCCCCCCCCC(=O)O)C(=O)O)C(=O)N[C@@H](CC(N)=O)C(=O)N[C@@H]([C@@H](C)O)C(=O)N[C@@H](C)C(=O)N[C@@H]([C@@H](C)O)C(=O)N1)[C@@H](C)O)C(=O)N1CCC[C@H]1C(=O)N[C@@H](CO)C(=O)N[C@@H](CO)C(=O)N[C@H](C(=O)N[C@@H](CC(N)=O)C(=O)N[C@H](C(=O)NCC(=O)N1CCC[C@H]1C(=O)N[C@@H](CC(N)=O)C(=O)N[C@H](C(=O)N1CCC[C@H]1C(N)=O)[C@@H](C)O)C(C)C)[C@@H](C)O
notes: Synthetic acylated analogue of human amylin
B7: N^ε1-[(4S)-4-carboxy-4-(19-carboxynonadecanoylamino)butanoyl]-[His14,Arg17,Pro21,Pro27,Pro34,Pro37]-h-amylin (peptide)
peptide: K([γGlu-C20 diacid])CNTATCATQRLAHFLRHSSPNFGAIPSSTNVGPNTP-NH2
modifications: disulfide 2-7; N-terminus assumed
SMILES: CC[C@H](C)[C@H](NC(=O)[C@H](C)NC(=O)CNC(=O)[C@H](Cc1ccccc1)NC(=O)[C@H](CC(N)=O)NC(=O)[C@@H]1CCCN1C(=O)[C@H](CO)NC(=O)[C@H](CO)NC(=O)[C@H](Cc1c[nH]cn1)NC(=O)[C@H](CCCNC(=N)N)NC(=O)[C@H](CC(C)C)NC(=O)[C@H](Cc1ccccc1)NC(=O)[C@H](Cc1c[nH]cn1)NC(=O)[C@H](C)NC(=O)[C@H](CC(C)C)NC(=O)[C@H](CCCNC(=N)N)NC(=O)[C@H](CCC(N)=O)NC(=O)[C@@H](NC(=O)[C@H](C)NC(=O)[C@@H]1CSSC[C@H](NC(=O)[C@@H](N)CCCCNC(=O)CC[C@H](NC(=O)CCCCCCCCCCCCCCCCCCC(=O)O)C(=O)O)C(=O)N[C@@H](CC(N)=O)C(=O)N[C@@H]([C@@H](C)O)C(=O)N[C@@H](C)C(=O)N[C@@H]([C@@H](C)O)C(=O)N1)[C@@H](C)O)C(=O)N1CCC[C@H]1C(=O)N[C@@H](CO)C(=O)N[C@@H](CO)C(=O)N[C@H](C(=O)N[C@@H](CC(N)=O)C(=O)N[C@H](C(=O)NCC(=O)N1CCC[C@H]1C(=O)N[C@@H](CC(N)=O)C(=O)N[C@H](C(=O)N1CCC[C@H]1C(N)=O)[C@@H](C)O)C(C)C)[C@@H](C)O
notes: as for B6

Molecular target: T1, human calcitonin receptor
Assay: cell-based or functional assay

| Binder | hCTR funct. EC50 (CRE luciferase reporter, BHK cells) [nM] |
| --- | --- |
| B1 | 0.07 |
| B2 | 0.16 |
| B3 | 0.112 |
| B4 | 0.087 |
| B5 | 0.238 |
| B6 | 0.09 |
| B7 | 0.04 |
